Results as given in patent US20240117334A1, “FACTOR B PROTEASES” (Vertex Pharmaceuticals Incorporated, priority 2021, published 2024).
Substitutions are numbered along the chain they refer to. Names may count otherwise.

B1: chymase C22S/P38Q/K40A/F41R/V138I/D175R/A190S/V213A/S218T/A226R (enzyme)
chain: IIGGTESKPHSRPYMAYLEIVTSNGQSARCGGFLIRRNFVLTAAHCAGRSITVTLGAHNITEEEDTWQKLEVIKQFRHPKYNTSTLHHDIMLLKLKEKASLTLAVGTLPFPSQFNFVPPGRMCRIAGWGRTGVLKPGSDTLQEVKLRLMDPQACSHFRRFDHNLQLCVGNPRKTKSSFKGDSGGPLLCAGVAQGIASYGRTDAKPPRVFTRISHYRPWINQILQAN
B2: chymase C22S/P38Q/K40L/F41R/L99Y/V138I/F173Y/D175N/A190S/V213A/S218V/A226R (enzyme)
chain: B1 chain with A28L, L86Y, F157Y, R159N, T201V
B3: chymase C22S/P38Q/K40A/F41R/L99H/V138I/F173Y/D175N/A190S/V213A/S218I/A226R (enzyme)
chain: B1 chain with L86H, F157Y, R159N, T201I
B4: chymase C22S/P38Q/K40M/F41R/L99Q/V138I/F173Y/D175N/A190S/V213A/S218V/A226R (enzyme)
chain: B1 chain with A28M, L86Q, F157Y, R159N, T201V
B5: chymase C22S/P38Q/K40A/F41T/L99Y/V138I/F173S/D175H/A190S/V213A/S218I/A226R (enzyme)
chain: B1 chain with R29T, L86Y, F157S, R159H, T201I
B6: chymase C22S/P38Q/K40I/F41R/L99N/V138I/D175T/A190S/V213A/S218V/A226R (enzyme)
chain: B1 chain with A28I, L86N, R159T, T201V
B7: chymase C22S/P38Q/K40L/F41R/V138I/F173M/D175N/A190S/V213A/S218L/A226R (enzyme)
chain: B1 chain with A28L, F157M, R159N, T201L
B8: chymase C22S/P38Q/K40M/F41T/V138I/D175R/A190S/V213A/S218I/A226R (enzyme)
chain: B1 chain with A28M, R29T, T201I
B9: chymase C22S/P38Q/K40M/F41K/L99W/V138I/F173M/A190S/V213A/S218N/A226R (enzyme)
chain: B1 chain with A28M, R29K, L86W, F157M, R159D, T201N
B10: chymase C22S/P38Q/K40M/F41R/L99H/V138I/D175Q/A190S/V213A/S218V/A226R (enzyme)
chain: B1 chain with A28M, L86H, R159Q, T201V
B11: chymase C22S/P38Q/K40A/F41R/L99H/V138I/D175R/A190S/V213A/S218L/A226R (enzyme)
chain: B1 chain with L86H, T201L
B12: chymase C22S/P38Q/K40M/F41R/L99Y/V138I/F173L/D175S/A190S/V213A/S218T/A226R (enzyme)
chain: B1 chain with A28M, L86Y, F157L, R159S
B13: chymase C22S/P38Q/K40L/F41R/V138I/F173L/D175H/A190S/V213A/S218V/A226R (enzyme)
chain: B1 chain with A28L, F157L, R159H, T201V
B14: chymase C22S/P38Q/K40M/F41R/V138I/F173L/D175R/A190S/V213A/S218T/A226R (enzyme)
chain: B1 chain with A28M, F157L
B15: chymase C22S/P38Q/K40M/F41K/L99Y/V138I/F173M/D175Y/A190S/V213A/S218V/A226R (enzyme)
chain: B1 chain with A28M, R29K, L86Y, F157M, R159Y, T201V
B16: chymase C22S/P38Q/K40V/F41R/V138I/F173L/D175R/A190S/V213A/S218I/A226R (enzyme)
chain: B1 chain with A28V, F157L, T201I
B17: chymase C22S/P38Q/K40A/F41R/L99H/V138I/D175N/A190S/V213A/S218I/A226R (enzyme)
chain: B1 chain with L86H, R159N, T201I
B18: chymase C22S/P38Q/K40M/F41H/V138I/F173Y/D175R/A190S/V213A/S218V/A226R (enzyme)
chain: B1 chain with A28M, R29H, F157Y, T201V
B19: chymase C22S/P38Q/K40L/F41R/L99Q/V138I/F173Y/D175N/A190S/V213A/S218V/A226R (enzyme)
chain: B1 chain with A28L, L86Q, F157Y, R159N, T201V
B20: chymase C22S/P38Q/K40M/F41R/L99N/V138I/F173Y/D175W/A190S/V213A/S218T/A226R (enzyme)
chain: B1 chain with A28M, L86N, F157Y, R159W
B21: chymase C22S/P38Q/K40M/F41H/V138I/D175S/A190S/V213A/A226R (enzyme)
chain: B1 chain with A28M, R29H, R159S, T201S
B22: chymase C22S/P38Q/K40M/F41H/L99H/V138I/D175S/A190S/V213A/S218V/A226R (enzyme)
chain: B1 chain with A28M, R29H, L86H, R159S, T201V
B23: chymase C22S/P38Q/K40M/F41R/L99N/V138I/D175N/A190S/V213A/S218T/A226R (enzyme)
chain: B1 chain with A28M, L86N, R159N
B24: chymase C22S/P38Q/K40L/F41R/V138I/F173Y/D175H/A190S/V213A/S218T/A226R (enzyme)
chain: B1 chain with A28L, F157Y, R159H
B25: chymase C22S/P38Q/K40L/F41R/V138I/F173Y/D175R/A190S/V213A/S218T/A226R (enzyme)
chain: B1 chain with A28L, F157Y
B26: chymase C22S/P38Q/K40L/F41R/L99M/V138I/F173L/D175R/A190S/V213A/S218V/A226R (enzyme)
chain: B1 chain with A28L, L86M, F157L, T201V
B27: chymase C22S/P38Q/K40A/F41R/V138I/F173S/D175T/A190S/V213A/S218V/A226R (enzyme)
chain: B1 chain with F157S, R159T, T201V
B28: chymase C22S/P38Q/K40A/F41R/L99H/V138I/F173M/D175T/A190S/V213A/S218I/A226R (enzyme)
chain: B1 chain with L86H, F157M, R159T, T201I
B29: chymase C22S/P38Q/K40M/F41R/L99F/V138I/F173L/D175N/A190S/V213A/A226R (enzyme)
chain: B1 chain with A28M, L86F, F157L, R159N, T201S

Each binder was assayed against Human Factor B (human) (UniProt P00751) (assay: cell-based or functional assay).
Chain of Human Factor B (human) (P00751 26-764 limits assumed): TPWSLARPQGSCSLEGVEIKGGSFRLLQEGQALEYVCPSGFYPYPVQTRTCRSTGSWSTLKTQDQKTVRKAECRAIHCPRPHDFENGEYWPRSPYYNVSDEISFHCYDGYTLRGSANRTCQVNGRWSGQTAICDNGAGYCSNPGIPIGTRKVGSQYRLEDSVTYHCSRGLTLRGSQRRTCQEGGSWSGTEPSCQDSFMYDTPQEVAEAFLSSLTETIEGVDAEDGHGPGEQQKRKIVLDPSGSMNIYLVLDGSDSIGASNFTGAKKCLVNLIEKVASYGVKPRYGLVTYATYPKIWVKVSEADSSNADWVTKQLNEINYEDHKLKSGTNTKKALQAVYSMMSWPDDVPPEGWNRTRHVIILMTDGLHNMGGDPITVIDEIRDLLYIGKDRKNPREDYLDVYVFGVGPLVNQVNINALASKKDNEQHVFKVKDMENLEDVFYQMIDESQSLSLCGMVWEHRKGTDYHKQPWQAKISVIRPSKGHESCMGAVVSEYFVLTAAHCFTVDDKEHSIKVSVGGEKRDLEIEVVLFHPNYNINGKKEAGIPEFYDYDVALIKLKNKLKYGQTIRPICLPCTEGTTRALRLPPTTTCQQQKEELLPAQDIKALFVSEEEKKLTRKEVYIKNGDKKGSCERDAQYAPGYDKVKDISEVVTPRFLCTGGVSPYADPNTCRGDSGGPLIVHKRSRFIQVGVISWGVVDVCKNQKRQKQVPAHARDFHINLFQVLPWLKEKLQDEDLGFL

Binder	fB Cleavage EC50
B1	262 nM
B2	57 nM
B3	92.9 nM
B4	157 nM
B5	3130 nM
B6	203 nM
B7	456 nM
B8	218 nM
B9	956 nM
B10	301 nM
B11	191 nM
B12	1230 nM
B13	314 nM
B14	51 nM
B15	448 nM
B16	169 nM
B17	170 nM
B18	47.6 nM
B19	102 nM
B20	500 nM
B21	1060 nM
B22	277 nM
B23	449 nM
B24	121 nM
B25	223 nM
B26	213 nM
B27	1720 nM
B28	882 nM
B29	870 nM
